The target of the data set is T1, octanoyl-ACP (octanoyl-acyl carrier protein, E. coli K12 MG1655 ACP), P0A6A8.
T1 chain: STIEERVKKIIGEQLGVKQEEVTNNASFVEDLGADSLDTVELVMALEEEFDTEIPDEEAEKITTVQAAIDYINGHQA

B1: CpFatB1.2-M4 (ΔA54, N28S, I65M) (protein)
chain: MGSSHHHHHHSSENLYFQGGGGYAAHRDYHRVRCAGKRWTMFDRKSKRPSMLMDSFGLERVVQDGLVFRQSFSIRSYEICADRTASMETVMNHVQETSLNQCKSIGLLDDGFGRSPEMCKRDLIWVVTRMKIMVNRYPTWGDTIEVSTWLSQSGKIGMGRDWLISDCNTGEILVRATSVYAMMNQKTRRFSKLPHEVRQEFAPHFLDSPPAIEDNDGKLQKFDVKTGDSIRKGLTPGWYDLDVNQHVSNVKYIGWILESMPTEVLETQELCSLTLEYRRECGRDSVLESVTSMDPSKVGDRFQYRHLLRLEDGADIMKGRTEWRPKNAGTNGAISTGKT
Turning to B1, the “Km (DTNB thioesterase assay)” value was “the Km remained relatively low” and the “Vmax (DTNB thioesterase assay), fold relative to CpFatB1.2” value is 15.7 fold increase in Vmax over CpFatB1.2.

The record behind these values is US12060598.
